The results in this text go back to publication PMC7988105, “Canonical versus non-canonical transsynaptic signaling of neuroligin 3 tunes development of sociality in mice” (Nature Communications, 2021).

The chains are these.
B1: mouse NLGN3 ECD (residues 35–684) with C-terminal His6 tag (domain or fragment, UniProt Q8BYM5 35-684, looked up)
chain: QAPAPTVNTHFGKLRGARVPLPSEILGPVDQYLGVPYAAPPIGEKRFLPPEPPPSWSGIRNATHFPPVCPQNIHTAVPEVMLPVWFTANLDIVATYIQEPNEDCLYLNVYVPTEDGSGAKKQGEDLADNDGDEDEDIRDSGAKPVMVYIHGGSYMEGTGNMIDGSVLASYGNVIVITLNYRVGVLGFLSTGDQAAKGNYGLLDQIQALRWVSENIAFFGGDPRRITVFGSGIGASCVSLLTLSHHSEGLFQRAIIQSGSALSSWAVNYQPVKYTSLLADKVGCNVLDTVDMVDCLRQKSAKELVEQDIQPARYHVAFGPVIDGDVIPDDPEILMEQGEFLNYDIMLGVNQGEGLKFVEGVVDPEDGVSGTDFDYSVSNFVDNLYGYPEGKDTLRETIKFMYTDWADRDNPETRRKTLVALFTDHQWVEPSVVTADLHARYGSPTYFYAFYHHCQSLMKPAWSDAAHGDEVPYVFGVPMVGPTDLFPCNFSKNDVMLSAVVMTYWTNFAKTGDPNKPVPQDTKFIHTKANRFEEVAWSKYNPRDQLYLHIGLKPRVRDHYRATKVAFWKHLVPHLYNLHDMFHYTSTTTKVPPPDTTHSSHITRRPNGKTWSTKRPAISPAYSNENAPGSWNGDQDAGPLLVENPRDYSTE
notes: mouse neuroligin 3, NLGN3A isoform, extracellular domain; Dimer by SEC-MALS and in both crystals; also called apo-NLGN3 ECD; wild-type NLGN3; not shown: His6, C-terminal, kept

Data set [1] concerns the molecule itself. Kind of data set: SEC-MALS; NLGN3 ECD wild-type at 1.5 g/L or R/C mutant at 1.1 g/L on ENrich SEC 650, 20 mM Tris-HCl pH 7.5, 150 mM NaCl.
For data set [2], the target named is T1, NLGN3 ECD MF/IS mutant (M614I F615S) with His6 tag (mouse, UniProt Q8BYM5 35-684, M614I | F615S).
T1 construct: mouse neuroligin 3, NLGN3A isoform, extracellular domain (gene for residues 1–684 expressed and secreted), mutated; also called NLGN3-MF/IS; not shown: His6, C-terminal, kept
Briefly: ITC; NLGN3 ECD (20 µM) in the cell, NRXN1β (200 µM) injected; 20 mM Tris-HCl pH 8.0, 150 mM NaCl, 1 mM CaCl2, 25 °C; one-site model. To be noted: both partners purified.

Data set [3] concerns the target B1. The description is as above. To be noted: both partners purified.

As to B1, in data set [1], the “stoichiometry N” value was 2.

B2: NRXN1β (lacking SS4) used for ITC (domain or fragment)
chain: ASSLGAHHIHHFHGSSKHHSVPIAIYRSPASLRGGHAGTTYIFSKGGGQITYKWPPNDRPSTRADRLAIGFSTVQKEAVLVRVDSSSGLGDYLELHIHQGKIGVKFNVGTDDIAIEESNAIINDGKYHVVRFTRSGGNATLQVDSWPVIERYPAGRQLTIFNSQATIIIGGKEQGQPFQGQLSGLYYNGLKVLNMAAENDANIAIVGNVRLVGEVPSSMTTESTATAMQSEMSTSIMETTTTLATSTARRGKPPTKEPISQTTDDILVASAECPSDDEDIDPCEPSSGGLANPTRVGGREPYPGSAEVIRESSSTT
As for B2, the results for the Kd in data set [2] and in data set [3] were 2.3 µM and 1.8 µM, respectively.
